A short description of data set [1]: immunoblot, HEK293T. The note with it: glycan lost; control: FOXK1 WT, PFOS-treated.
A short description of data set [2]: PES1 IP, HA-Ub blot, MG132, HEK293T. The note with it: glycan lost; control: FOXK1 WT, PFOS-treated.
A short description of data set [3]: cycloheximide chase, PES1 immunoblot, HEK293T. To be noted: glycan lost; control: FOXK1 WT. Background: Immunoblotting shows a protein as a band on a membrane.

The values below come from PMC12948240.

B1: forkhead box k1 (FOXK1): FOXK1 T573A (protein)
parent chain: MAEVGEDSGARALLALRSAPCSPVLCAAAAAAAFPATTSPPPPAQPPPGPPALPAEPGPGPVPSTVATATTTAPALVAAAAASVRQSPGPALARLEGREFEFLMRQPSVTIGRNSSQGSVDLSMGLSSFISRRHLQLSFQEPHFYLRCLGKNGVFVDGAFQRRGAPALQLPQQCTFRFPSTAIKIQFTSLYHKEEAPASPLRPLYPQISPLKIHIPEPDLRSLVSPIPSPTGTISVPNSCPASPRGAGSSSYRFVQNVTSDLQLAAEFAAKAASEQQADASGGDSPKDESKPPYSYAQLIVQAISSAQDRQLTLSGIYAHITKHYPYYRTADKGWQNSIRHNLSLNRYFIKVPRSQEEPGKGSFWRIDPASEAKLVEQAFRKRRQRGVSCFRTPFGPLSSRSAPASPTHPGLMSPRSSGLQTPECLSREGSPIPHDPDLGSKLASVPEYRYSQSAPGSPVSAQPVIMAVPPRPSNLVAKPVAYMPASIVTSQQPSGHAIHVVQQAPTVTMVRVVTTSANSANGYILASQGSTGTSHDTAGTAVLDLGNEARGLEEKPTIAFATIPAASRVIQTVASQMAPGVPGHTVTILQPATPVTIGQHHLPVRAVTQNGKHAVPTNSLTGNAYALSSPLQLLAAQASSSTPVVITRVCEVGPEEPAAAVSVAANAAPTPAASTTTSASSSGEPEVKRSRVEEPGGTATTQPTAMAATGPQGPGTGE
Turning to B1, in data set [1], the “other: PES1 protein level” value is on record as “decreases”. Further, in data set [2], the “other: PES1 ubiquitination” value is “increases”. Moreover, in data set [3], the “other: PES1 degradation” value is listed as “increases”.
